Drawing on PMC8633249 (2021), this text covers Kd for one molecule.

Assay [1] deals with T1, AGL55, 55-mer A-domain peptide of PAM_(NS88.2) (Streptococcus pyogenes (GAS isolate …)). Briefly: ITC; 25°C. Background: In ITC the heat of successive injections is recorded.
In assay [2] the target is T1, AGL55, 55-mer A-domain peptide of …. Kind of assay: ITC; 37°C.
Assay [3] has the same target. Kind of assay: ITC; 4°C.

B1: K2hPg, kringle-2 domain of human plasminogen (domain or fragment)
chain: YVEFSEECMHGSGENYDGKISKTMSGLECQAWDSQSPHAHGYIPSKFPNKNLKKNYCRNPDRDLRPWCFTTDPNKRWEYCDIPRCAA
As to B1, the Kd (as a rule, the free concentration of one partner at which half of the binding sites on the other are occupied at equilibrium, for simple one-to-one binding) in assay [1] came out at 31 nM; in assay [2], 236 nM; in assay [3], 2.6 nM.
